# Source: article PMC10630141, “OPUS-DSD: deep structural disentanglement for cryo-EM single-particle analysis” (Nature Methods, 2023)
# B1: ZCCHC8 (natural protein, UniProt Q6NZY4 1-707, looked up)
# chain: MAAEVYFGDLELFEPFDHPEESIPKPVHTRFKDDDGDEEDENGVGDAELRERLRQCEETIEQLRAENQELKRKLNILTRPSGILVNDTKLDGPILQILFMNNAISKQYHQEIEEFVSNLVKRFEEQQKNDVEKTSFNLLPQPSSIVLEEDHKVEESCAIKNNKEAFSVVGSVLYFTNFCLDKLGQPLLNENPQLSEGWEIPKYHQVFSHIVSLEGQEIQVKAKRPKPHCFNCGSEEHQMKDCPMPRNAARISEKRKEYMDACGEANNQNFQQRYHAEEVEERFGRFKPGVISEELQDALGVTDKSLPPFIYRMRQLGYPPGWLKEAELENSGLALYDGKDGTDGETEVGEIQQNKSVTYDLSKLVNYPGFNISTPRGIPDEWRIFGSIPMQACQQKDVFANYLTSNFQAPGVKSGNKRSSSHSSPGSPKKQKNESNSAGSPADMELDSDMEVPHGSQSSESFQFQPPLPPDTPPLPRGTPPPVFTPPLPKGTPPLTPSDSPQTRTASGAVDEDALTLEELEEQQRRIWAALEQAESVNSDSDVPVDTPLTGNSVASSPCPNELDLPVPEGKTSEKQTLDEPEVPEIFTKKSEAGHASSPDSEVTSLCQKEKAELAPVNTEGALLDNGSVVPNCDISNGGSQKLFPADTSPSTATKIHSPIPDMSKFATGITPFEFENMAESTGMYLRIRSLLKNSPRNQQKNKKASE
# notes: ZCCHC8 of the nuclear exosome-targeting (NEXT) complex; The complex was cross-linked with glutaraldehyde before the grids were made; ZCCHC8 forms the dimeric centre of the complex; also called ZCCHC8 center; ZCCHC8 dimeric center; source: HEK293 GnTI- cells infected with recombinant baculovirus, overexpressed separately; cell pellets of the three NEXT proteins mixed, purified as the complex …
# Molecular target: the molecule itself
# Assay: cryo-EM structure; NEXT complex (MTR4, RBM7, ZCCHC8) purified on poly-flag-tag beads and Superdex 200, cross-linked in a 10-30% glycerol gradient with 0.2% glutaraldehyde, dialysed into 20 mM HEPES pH 7.4, 150 mM NaCl; single-particle analysis, signal of one MTR4 helicase domain subtracted
protein,measurement,value
B1,stoichiometry N,2
